Test results from publication PMC8967028.

Biological target: SARS-CoV-1 spike (S) receptor binding domain (SARS-CoV-1)
Test: SPR

parental VHH-72-Fc (Fc fusion)
koff: 0.00021 s⁻¹
